Assay results published in patent US20250043002A1 (Regeneron, published 2025).

Tests used:
[1] = biological target: T1, human CD28 on cells (endogenous on Jurkat/NFkB-Luc cells; human primary CD4+ T cells) (human, UniProt P10747 19-220); experiment: flow cytometry, Jurkat/NFkB-Luc cells (endogenous CD28)
T1 construct: whole, on cells

[2] = biological target: T1, human CD28 on cells (endogenous on …); experiment: cell-based or functional assay
[3] = biological target: T1, human CD28 on cells (endogenous on …); experiment: cell-based or functional assay; remark: listed apart in the source
[4] = biological target: T2, human PD-L1 expressed on cells (HEK293/hCD20/hPSMA/hPD-L1; WSU-DLCL2/hPD-L1) (human, UniProt Q9NZQ7 19-290); experiment: flow cytometry, HEK293/hCD20/hPSMA/hPD-L1 cells
T2 construct: whole, on cells; also called human programmed death ligand-1

[5] = biological target: T3, hPD-L1-mFc: hPD-L1 extracellular domain (amino acids F19-T239) expressed with the Fc portion of mouse IgG2a … (human; mouse, UniProt Q9NZQ7 19-239); experiment: blocking ELISA, 0.7 nM hPD-L1-mFc on plate-coated hPD1-hFc
T3 construct: range 19-239; not shown: Fc portion of mouse IgG2a, amino acids E98-K330

[6] = biological target: human CD28 expressed with a C-terminal murine Fc tag (hCD28.mFc) (human); experiment: SPR Biacore 25 C, hCD28.mFc captured by anti-mFc, antibody injected

T2 sequence (Q9NZQ7 19-290): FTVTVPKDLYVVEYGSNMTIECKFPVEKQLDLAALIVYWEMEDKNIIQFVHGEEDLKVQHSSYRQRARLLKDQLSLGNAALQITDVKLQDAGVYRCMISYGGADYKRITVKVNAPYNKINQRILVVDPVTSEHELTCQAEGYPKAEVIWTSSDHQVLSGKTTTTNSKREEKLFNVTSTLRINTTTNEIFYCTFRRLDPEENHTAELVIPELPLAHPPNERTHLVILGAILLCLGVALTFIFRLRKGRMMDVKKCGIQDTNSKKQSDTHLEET
T3 sequence (Q9NZQ7 19-239 limits assumed): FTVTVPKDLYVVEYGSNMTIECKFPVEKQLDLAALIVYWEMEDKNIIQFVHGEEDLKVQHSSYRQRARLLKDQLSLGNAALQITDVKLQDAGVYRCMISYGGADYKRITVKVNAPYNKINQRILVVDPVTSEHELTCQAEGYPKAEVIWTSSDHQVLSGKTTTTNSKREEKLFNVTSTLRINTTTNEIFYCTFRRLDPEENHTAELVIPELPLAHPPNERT

Row | Binder | EC50 [1] [nM] | Fold Change (max MFI over secondary antibody alone) [1] [fold] | Max gMFI [1] [gMFI] | IL2 release EC50, CD4+ T cells + HEK293/hCD20/hPSMA + CD20×CD3 [2] [nM] | IL2 release MAX (RLU), CD4+ T cells + HEK293/hCD20/hPSMA [2] [RLU] | IL2 release MAX (RLU), CD4+ T cells + HEK293/hCD20/hPSMA + CD20×CD3 [2] [RLU] | IL2 release MAX (RLU), CD4+ T cells + HEK293/hCD20/hPSMA/hPD-L1 [2] [RLU] | IL2 release MAX (RLU), CD4+ T cells + HEK293/hCD20/hPSMA/hPD-L1 + CD20×CD3 [2] [RLU] | NFkB-luciferase EC50, Jurkat/NFkB-Luc + HEK293/hCD20/hPSMA/hPD-L1 + CD20×CD3 [3] [nM] | NFkB-luciferase MAX (RLU), Jurkat/NFkB-Luc + HEK293/hCD20/hPSMA [3] [RLU] | NFkB-luciferase MAX (RLU), Jurkat/NFkB-Luc + HEK293/hCD20/hPSMA + CD20×CD3 [3] [RLU] | NFkB-luciferase MAX (RLU), Jurkat/NFkB-Luc + HEK293/hCD20/hPSMA/hPD-L1 [3] [RLU] | NFkB-luciferase MAX (RLU), Jurkat/NFkB-Luc + HEK293/hCD20/hPSMA/hPD-L1 + CD20×CD3 [3] [RLU] | Fold Change (max MFI over secondary antibody alone) [4] [fold] | Max gMFI [4] [gMFI] | binding result [4] | % Blocking at 100 nM mAb [5] [%] | also measured
1 | mAb14226 (antibody, V domains shown, Bivalent parental antibody; also called parental bivalent anti-CD28 antibody; CD28 bivalent control antibody) VH: QVQLQESGPGLVKPSETLSLTCTVSGGSISSYYWSWIRQPPGKGLEWIGYIYYSGITHYNPSLKSRVTISVDTSKIQFSLKLSSVTAADTAVYYCARWGVRRDYYYYGMDVWGQGTTVTVSS VL: not shown | 0.73 | 101 | 43000 | 0.116 | 2910 | 64400 | 2860 | 38800 | 0.0875 | 73200 | 649000 | 60800 | 596000 | – | – | – | – | IL2 release EC50, CD4+ T cells + HEK293/hCD20/hPSMA/hPD-L1 + CD20×CD3 [2]: 2.67 nM; NFkB-luciferase EC50, Jurkat/NFkB-Luc + HEK293/hCD20/hPSMA [3]: 5.69 nM; NFkB-luciferase EC50, Jurkat/NFkB-Luc + HEK293/hCD20/hPSMA + CD20×CD3 [3]: 0.0514 nM
2 | mAb14216 (antibody, V domains shown, Bivalent parental antibody; also called parental bivalent anti-CD28 antibody; CD28 bivalent control antibody) VH: EVQLVESGGGLVQPGGSLRLSCAASGFTFSRNNMHWVRQAPGKGLEYVSGISSNGGRTYYADSVKGRFTISRDNSKNTLYLQMGGLRAADMAVYFCTRDDELLSFDYWGQGTLVTVSS VL: not shown | 9.3 | 60.3 | 25000 | 9.54 | 3040 | 25600 | 2860 | 3620 | – | – | – | – | – | 1.2 | 1800 | no binding | 1 | –
3 | mAb14193 (antibody, V domains shown, Bivalent parental antibody; also called parental bivalent anti-CD28 antibody; CD28 bivalent control antibody) VH: EVQLVESGGGLVQPGGSLRLSCAASGFTFSTYAMTWVRQAPGKGLEWVSFISGSGDNTYYADSVKGRFTISRDNSKNTLYLQMNSLRADDSAIYHCAKDSGYCSSGGCSLYFYYGMDVWGQGTTVTVSS VL: not shown | 21 | 42.5 | 18000 | 24.9 | 3110 | 33600 | 3070 | 4720 | – | – | – | – | – | 3 | 4700 | no binding | 6 | –
4 | REGN6194 (bispecific antibody, human IgG4 S228P, kappa, also called PD-L1×CD28; anti-PD-L1 × anti-CD28 bispecific antibody) heavy 1: QVQLVQSGTEVKKPGASVKVSCKASGYTFTAYYMHWVRQAPGQGLDWMGWISPNSGFTNYAQKFQGRVTMTRDTSINTFYMELSGLRSDDTAVYYCAREGSTHHNSFDPWGQGTLVTVSSASTKGPSVFPLAPCSRSTSESTAALGCLVKDYFPEPVTVSWNSGALTSGVHTFPAVLQSSGLYSLSSVVTVPSSSLGTKTYTCNVDHKPSNTKVDKRVESKYGPPCPPCPAPPVAGPSVFLFPPKPKDTLMISRTPEVTCVVVDVSQEDPEVQFNWYVDGVEVHNAKTKPREEQFNSTYRVVSVLTVLHQDWLNGKEYKCKVSNKGLPSSIEKTISKAKGQPREPQVYTLPPSQEEMTKNQVSLTCLVKGFYPSDIAVEWESNGQPENNYKTTPPVLDSDGSFFLYSRLTVDKSRWQEGNVFSCSVMHEALHNHYTQKSLSLSLGK heavy 2: QVQLQESGPGLVKPSETLSLTCTVSGGSISSYYWSWIRQPPGKGLEWIGYIYYSGITHYNPSLKSRVTISVDTSKIQFSLKLSSVTAADTAVYYCARWGVRRDYYYYGMDVWGQGTTVTVSSASTKGPSVFPLAPCSRSTSESTAALGCLVKDYFPEPVTVSWNSGALTSGVHTFPAVLQSSGLYSLSSVVTVPSSSLGTKTYTCNVDHKPSNTKVDKRVESKYGPPCPPCPAPPVAGPSVFLFPPKPKDTLMISRTPEVTCVVVDVSQEDPEVQFNWYVDGVEVHNAKTKPREEQFNSTYRVVSVLTVLHQDWLNGKEYKCKVSNKGLPSSIEKTISKAKGQPREPQVYTLPPSQEEMTKNQVSLTCLVKGFYPSDIAVEWESNGQPENNYKTTPPVLDSDGSFFLYSRLTVDKSRWQEGNVFSCSVMHEALHNRFTQKSLSLSPGK light: not shown | 7.5 | 90.4 | 28000 | – | 5480 | 33700 | 2870 | 165000 | 0.028 | 11400 | 425000 | 16700 | 3.6e+06 | – | – | – | – | 90 nM mAb Bind (RU) [6]: 39.4 RU; Kd [6]: 24.5 nM; koff [6]: 0.00326 s⁻¹; kon [6]: 133000 M⁻¹ s⁻¹; t1/2 [6]: 3.5 min
